Experimental findings from patent US20240132615A1 (ICHNOS SCIENCES, published 2024) are described below.

Assay [1] concerns the target T1, recombinant cynomolgus monkey BCMA protein (Acrobiosystems BCA-C52H7) (cynomolgus monkey, UniProt A0A2K5UD97 1-53). As to the kind of experiment: SPR, Fab as analyte, immobilised cynomolgus BCMA. A general note: In SPR one partner is held on a chip, and binding of the other changes the refractive index at the surface.
The target in assay [2] is T2, recombinant human BCMA protein (Acrobiosystems BCA-H522y) (human, UniProt Q02223 1-54).
T2 construct: bought protein
T2 sequence (looked up): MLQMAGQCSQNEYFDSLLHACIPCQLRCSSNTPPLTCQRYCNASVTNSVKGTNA
The assay is described as follows: SPR, Fab as analyte, immobilised human BCMA, 1:1 Langmuir.

Assay [3] concerns the target T1, recombinant cynomolgus monkey BCMA …. As to the kind of experiment: SPR, Fab as analyte, immobilised cynomolgus BCMA, 1:1 Langmuir.
Assay [4] concerns the target T3, human BCMA on cells (NCI-H929, NCI-H929 CD38 KO, MOLP-8) (human, UniProt Q02223 1-184).
T3 construct: whole, on cells; endogenous BCMA of myeloma cell lines
T3 sequence (looked up): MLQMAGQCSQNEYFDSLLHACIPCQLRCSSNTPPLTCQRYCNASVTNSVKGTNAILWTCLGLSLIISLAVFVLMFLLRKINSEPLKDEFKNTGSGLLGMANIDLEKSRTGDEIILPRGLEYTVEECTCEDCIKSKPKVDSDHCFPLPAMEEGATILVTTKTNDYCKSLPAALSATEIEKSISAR
As to the kind of experiment: flow cytometry, NCI-H929 cells, one-site fit. For orientation: A flow cytometer gives signals particle by particle.

Assay [5] has as its target T3, human BCMA on cells (NCI-H929, NCI-H929 …). As to the kind of experiment: flow cytometry, NCI-H929 cells.
The target in assay [6] is T4, biotinylated recombinant cynomolgus monkey BCMA Fc fusion protein (Acrobiosystems BCA-C82F4) (cynomolgus monkey, UniProt A0A2K5UD97 1-53).
T4 construct: bought protein; not shown: Fc of the bought fusion protein, not described
The assay is described as follows: SPR, Fab as analyte, biotin-captured cynomolgus BCMA-Fc.

Assay [7] concerns the target T5, Biotinylated Human BCMA/TNFRSF17 Protein, His, Avitag (Acrobiosystems BCA-H82E4) (human, UniProt Q02223 1-54, biotinylated).
T5 construct: bought protein; also called biotinylated recombinant human BCMA protein; hBCMA
T5 sequence (looked up): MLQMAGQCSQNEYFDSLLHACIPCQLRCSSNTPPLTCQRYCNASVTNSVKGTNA
As to the kind of experiment: SPR, Fab as analyte, biotin-captured human BCMA.

T1 sequence (A0A2K5UD97 entry or part of it): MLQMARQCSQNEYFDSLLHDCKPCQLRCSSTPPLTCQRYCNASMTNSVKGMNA
T4 sequence (A0A2K5UD97 entry or part of it): as above

B1: anti-BCMA-UCP01-A8 FAB (Fab, V domains shown)
VH: QVQLVQSGAEVKKPGSSVKVSCKASGGLFNYYIINWVRQAPGQGLEWMGGIIPTYGGAGYAQKFQGRVTITADESTSTAYMELSSLRSEDTAVYYCARSSPSISGYAFDVWGQGTLVTVSS
VL: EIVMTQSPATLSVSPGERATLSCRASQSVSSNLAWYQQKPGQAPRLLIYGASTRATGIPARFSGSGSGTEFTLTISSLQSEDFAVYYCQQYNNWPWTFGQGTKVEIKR
notes: Fab
For B1, the binding result in assay [1] is “no binding”. In assay [2], the Kd (in general, the constant that tells how readily two partners part at equilibrium) worked out at 235 nM.

B2: anti-BCMA-UCP01-E9 FAB (Fab, V domains shown)
VH: EVQLLESGGGLVQPGGSLRLSCAASGFTFSNYAMSWVRQAPGKGLEWVSVISERGAVTVYADSVKGRFTISRDNSKNTLYLQMNSLRAEDTAVYYCARSPYGYSSGVEGYFGFDVWGQGTLVTVSS
VL: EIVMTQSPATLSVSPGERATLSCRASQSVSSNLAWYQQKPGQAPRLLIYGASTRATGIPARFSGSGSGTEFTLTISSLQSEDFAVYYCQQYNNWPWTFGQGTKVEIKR
notes: Fab
Take B2: the figures for the Kd in assay [3] and in assay [2] were 236 nM and 10 nM, respectively.

B3: anti-BCMA-PP03-E4 FAB (Fab, V domains shown)
VH: EVQLLESGGGLVQPGGSLRLSCAASGFALSYYAMSWVRQAPGKGLEWVSAISEDGGRTSYADSVKGRFTISRDNSKNTLYLQMNSLRAEDTAVYYCARASAYIPYSEFYAGFDVWGQGTLVTVSS
VL: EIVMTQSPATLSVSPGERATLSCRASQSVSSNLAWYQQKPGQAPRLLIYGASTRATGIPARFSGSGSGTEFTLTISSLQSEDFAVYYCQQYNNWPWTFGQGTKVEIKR
notes: Fab
Take B3: the Kd in assay [3] turned out to be 696 nM; in assay [2] it was 582 nM.

B4: anti-BCMA-PP02-C4 FAB (Fab, V domains shown)
VH: EVQLLESGGGLVQPGGSLRLSCAASGFTFTAYDMSWVRQAPGKGLEWVSAISGFGGDTLYADSVKGRFTISRDNSKNTLYLQMNSLRAEDTAVYYCARIGYYYLDSAFDYWGQGTLVTVSS
VL: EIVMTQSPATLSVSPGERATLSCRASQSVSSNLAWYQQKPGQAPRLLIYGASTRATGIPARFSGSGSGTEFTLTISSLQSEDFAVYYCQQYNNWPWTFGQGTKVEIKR
notes: Fab
Take B4: the results for the Kd in assay [3] and in assay [2] were 114 nM and 608 nM, respectively.

B5: anti-BCMA-PP03-C4 FAB (Fab, V domains shown)
VH: EVQLLESGGGLVQPGGSLRLSCAASGFTFTAYDMSWVRQAPGKGLEWVSAISGFGGDTLYADSVKGRFTISRDNSKNTLYLQMNSLRAEDTAVYYCARIGYYYLDSAFDYWGQGTLVTVSS
VL: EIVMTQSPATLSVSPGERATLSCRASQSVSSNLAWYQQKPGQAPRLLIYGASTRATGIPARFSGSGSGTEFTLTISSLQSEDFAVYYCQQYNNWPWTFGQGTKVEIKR
notes: Fab
B5: the Kd in assay [3] was found to be 109 nM; in assay [2], 549 nM.

B6: anti-BCMA-PP02-B4 FAB (Fab, V domains shown)
VH: EVQLLESGGGLVQPGGSLRLSCAASGFTFSNYDMSWVRQAPGKGLEWVSAISVSGDFTQYADSVKGRFTISRDNSKNTLYLQMNSLRAEDTAVYYCARVGYYLLDSAFDIWGQGTLVTVSS
VL: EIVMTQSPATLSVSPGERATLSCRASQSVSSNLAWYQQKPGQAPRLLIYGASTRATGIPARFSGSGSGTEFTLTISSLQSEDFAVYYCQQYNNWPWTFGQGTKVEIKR
notes: Fab
As to B6, the Kd in assay [3] amounted to 58 nM; in assay [2] it was 648 nM.

B7: anti-BCMA-UCP01-E8 FAB (Fab, V domains shown)
VH: QVQLVQSGAEVKKPGSSVKVSCKASGGQFSVQFISWVRQAPGQGLEWMGGIIPTSGDTYYAQKFQGRVTITADESTSTAYMELSSLRSEDTAVYYCARSVVDLSYVTGYYYMDIWGQGTLVTVSS
VL: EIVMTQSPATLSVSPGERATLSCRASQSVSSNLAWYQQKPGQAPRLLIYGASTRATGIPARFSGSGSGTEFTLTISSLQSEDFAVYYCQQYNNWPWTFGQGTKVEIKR
notes: Fab
Regarding B7, the binding result in assay [1] is recorded as “no binding”. For the same molecule, the Kd in assay [2] amounted to 1740 nM.

B8: anti-BCMA-PP02-F1 FAB (Fab, V domains shown)
VH: EVQLLESGGGLVQPGGSLRLSCAASGFSFSEYAMSWVRQAPGKGLEWVSALSLSGDVTSYADSVKGRFTISRDNSKNTLYLQMNSLRAEDTAVYYCARSPYSRVGDSYYYDYIGFDIWGQGTLVTVSS
VL: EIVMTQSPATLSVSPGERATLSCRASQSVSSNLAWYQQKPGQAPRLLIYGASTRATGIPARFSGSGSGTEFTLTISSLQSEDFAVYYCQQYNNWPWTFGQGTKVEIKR
notes: Fab
B8: the Kd came to 598 nM in assay [3] and 145 nM in assay [2].

B9: anti-BCMA-UCP01-C2 FAB (Fab, V domains shown)
VH: EVQLLESGGGLVQPGGSLRLSCAASGFIFSQYDMSWVRQAPGKGLEWVSAISLLGDFTSYADSVKGRFTISRDNSKNTLYLQMNSLRAEDTAVYYCARRLTDYISGGGDGFDVWGQGTLVTVSS
VL: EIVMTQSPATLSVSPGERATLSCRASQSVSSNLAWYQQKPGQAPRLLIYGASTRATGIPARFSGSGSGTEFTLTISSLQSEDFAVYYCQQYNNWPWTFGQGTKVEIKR
notes: Fab
On to B9, for which, in assay [1], the binding result is recorded as “no binding”. Further, in assay [2], the Kd came out at 336 nM.

B10: Anti-BCMA-E6-PP02-G2 FAB (Fab, V domains shown)
VH: EVQLLESGGGLVQPGGSLRLSCAASGFTFSYYAMTWVRQAPGKGLEWVGTISQSVGQVVKYADSVKGRFTISRDNSKNTLYLQMNSLRAEDTAVYYCARSPYSYLHGYYGFDYWGQGTLVTVSS
VL: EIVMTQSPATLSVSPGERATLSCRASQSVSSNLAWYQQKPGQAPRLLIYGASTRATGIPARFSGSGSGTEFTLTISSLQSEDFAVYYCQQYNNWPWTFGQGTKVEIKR
notes: Fab
As to B10, the figures for the Kd in assay [4], in assay [6] and in assay [7] were 5.22 nM, 0.728 nM and 0.176 nM, respectively. In addition, in assay [5], the “Maximum binding (RFI)” value was 40500 RFI.

B11: Anti-BCMA-E6-PP02-D2 FAB (Fab, V domains shown)
VH: EVQLLESGGGLVQPGGSLRLSCAASGFTFSYYAMTWVRQAPGKGLEWVSTISQQNEQTKYADSVKGRFTISRDNSKNTLYLQMNSLRAEDTAVYYCARSPYSYLHGYYGFDYWGQGTLVTVSS
VL: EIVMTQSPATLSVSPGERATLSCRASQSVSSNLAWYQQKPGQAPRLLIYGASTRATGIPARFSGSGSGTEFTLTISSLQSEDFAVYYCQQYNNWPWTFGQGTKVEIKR
notes: Fab
Regarding B11, the Kd in assay [4] stood at 6.58 nM; in assay [6] it was 0.97 nM; in assay [7], 0.342 nM. Also, the “Maximum binding (RFI)” value in assay [5] was found to be 36300 RFI.

B12: anti-BCMA-PP02-E6 FAB (Fab, V domains shown)
VH: EVQLLESGGGLVQPGGSLRLSCAASGFTFSYYAMTWVRQAPGKGLEWVSTISQNGGQTKYADSVKGRFTISRDNSKNTLYLQMNSLRAEDTAVYYCARSPYSYLHGYYGFDYWGQGTLVTVSS
VL: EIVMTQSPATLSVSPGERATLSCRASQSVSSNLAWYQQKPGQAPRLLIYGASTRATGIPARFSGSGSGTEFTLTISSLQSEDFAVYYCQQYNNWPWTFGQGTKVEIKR
notes: Fab; also called anti-BCMA-E6; anti-BCMA-E6 Fab
For the molecule B12, the results for the Kd in assay [3] and in assay [2] were 52 nM and 18 nM, respectively.

B13: Anti-BCMA-E6-PP02-B1 FAB (Fab, V domains shown)
VH: EVQLLESGGGLVQPGGSLRLSCAASGFTFSYYAMTWVRQAPGKGLEWVSTVSQAGYDTKYADSVKGRFTISRDNSKNTLYLQMNSLRAEDTAVYYCARSPYSYLHGYYGFDYWGQGTLVTVSS
VL: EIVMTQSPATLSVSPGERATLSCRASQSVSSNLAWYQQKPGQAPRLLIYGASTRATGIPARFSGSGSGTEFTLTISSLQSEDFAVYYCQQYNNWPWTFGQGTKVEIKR
notes: Fab; also called anti-BCMA-E6-B1; E6-B1
For B13, the Kd in assay [4] came out at 3.72 nM; in assay [6] it was 0.51 nM; in assay [7] it was 0.182 nM. Besides, the “Maximum binding (RFI)” value in assay [5] came out at 34700 RFI.

B14: Anti-BCMA-E6-PP02-C7 FAB (Fab, V domains shown)
VH: EVQLLESGGGLVQPGGSLRLSCAASGFTFSYYAMTWVRQAPGKGLEWVSTISQSGLVPKYADSVKGRFTISRDNSKNTLYLQMNSLRAEDTAVYYCARSPYSYLHGYYGFDYWGQGTLVTVSS
VL: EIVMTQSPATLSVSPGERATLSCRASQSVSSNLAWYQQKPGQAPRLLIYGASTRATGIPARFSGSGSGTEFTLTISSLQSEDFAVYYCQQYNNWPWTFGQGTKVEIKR
notes: Fab
Take B14: the Kd in assay [4] is 6.83 nM; in assay [6], 1.19 nM; in assay [7], 0.3 nM. Further, in assay [5], the “Maximum binding (RFI)” value stood at 38600 RFI.

B15: Anti-BCMA-E6-PP02-A3 FAB (Fab, V domains shown)
VH: EVQLLESGGGLVQPGGSLRLSCAASGFTFSYYAMTWVRQAPGKGLEWVSTISSQNDITKYADSVKGRFTISRDNSKNTLYLQMNSLRAEDTAVYYCARSPYSYLHGYYGFDYWGQGTLVTVSS
VL: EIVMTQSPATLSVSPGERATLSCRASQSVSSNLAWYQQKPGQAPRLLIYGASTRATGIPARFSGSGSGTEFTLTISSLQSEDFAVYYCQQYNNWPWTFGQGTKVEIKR
notes: Fab
Regarding B15, the Kd is 6.37 nM in assay [4], 0.915 nM in assay [6] and 0.33 nM in assay [7]. Further, the “Maximum binding (RFI)” value in assay [5] is 40200 RFI.

B16: Anti-BCMA-E6-PP02-B4 FAB (Fab, V domains shown)
VH: EVQLLESGGGLVQPGGSLRLSCAASGFTFSYYAMTWVRQAPGKGLEWVSTISQPGFDAKYADSVKGRFTISRDNSKNTLYLQMNSLRAEDTAVYYCARSPYSYLHGYYGFDYWGQGTLVTVSS
VL: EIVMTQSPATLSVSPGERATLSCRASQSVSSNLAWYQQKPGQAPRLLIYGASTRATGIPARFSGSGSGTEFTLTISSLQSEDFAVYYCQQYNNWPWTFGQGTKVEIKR
notes: Fab
On to B16, for which the Kd was 5.49 nM in assay [4], 0.857 nM in assay [6] and 0.086 nM in assay [7]. For the same molecule, in assay [5], the “Maximum binding (RFI)” value was 43500 RFI.

B17: Anti-BCMA-E6-PP02-E6 FAB (Fab, V domains shown)
VH: EVQLLESGGGLVQPGGSLRLSCAASGFTFSYYAMTWVRQAPGKGLEWVSTISQAGRDFKYADSVKGRFTISRDNSKNTLYLQMNSLRAEDTAVYYCARSPYSYLHGYYGFDYWGQGTLVTVSS
VL: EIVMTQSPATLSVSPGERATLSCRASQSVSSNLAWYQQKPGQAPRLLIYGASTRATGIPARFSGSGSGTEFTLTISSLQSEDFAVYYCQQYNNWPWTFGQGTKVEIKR
notes: Fab; also called anti-BCMA-E6-E6; E6-E6
Consider B17, for which the results for the Kd in assay [4], in assay [6] and in assay [7] were 5.13 nM, 0.615 nM and 0.169 nM, respectively. Further, in assay [5], the “Maximum binding (RFI)” value came to 43200 RFI.

B18: Anti-BCMA-E6-PP02-G7 FAB (Fab, V domains shown)
VH: EVQLLESGGGLVQPGGSLRLSCAASGFTFSYYAMTWVRQAPGKGLEWVSTISQQWDVTKYADSVKGRFTISRDNSKNTLYLQMNSLRAEDTAVYYCARSPYSYLHGYYGFDYWGQGTLVTVSS
VL: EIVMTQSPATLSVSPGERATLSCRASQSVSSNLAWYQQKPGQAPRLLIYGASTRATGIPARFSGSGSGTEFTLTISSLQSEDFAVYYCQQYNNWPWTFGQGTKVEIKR
notes: Fab
Consider B18, for which the Kd in assay [4] was 4.86 nM; in assay [6], 0.237 nM; in assay [7] it was 0.061 nM. For the same molecule, the “Maximum binding (RFI)” value in assay [5] is 39400 RFI.

B19: Anti-BCMA-E6-PP02-F7 FAB (Fab, V domains shown)
VH: EVQLLESGGGLVQPGGSLRLSCAASGFTFSYYAMTWVRQAPGKGLEWVSTIGQRGFQTKYADSVKGRFTISRDNSKNTLYLQMNSLRAEDTAVYYCARSPYSYLHGYYGFDYWGQGTLVTVSS
VL: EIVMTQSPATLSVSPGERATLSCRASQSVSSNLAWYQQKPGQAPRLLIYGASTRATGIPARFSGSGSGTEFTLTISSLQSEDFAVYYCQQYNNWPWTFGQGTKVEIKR
notes: Fab
For B19, the Kd in assay [4] was 5.53 nM; in assay [6], 0.964 nM; in assay [7] it was 0.22 nM. For the same molecule, in assay [5], the “Maximum binding (RFI)” value came to 44700 RFI.

B20: Anti-BCMA-E6-PP02-G6 FAB (Fab, V domains shown)
VH: EVQLLESGGGLVQPGGSLRLSCAASGFTFSYYAMTWVRQAPGKGLEWVSTIAQRGGQTKYADSVKGRFTISRDNSKNTLYLQMNSLRAEDTAVYYCARSPYSYLHGYYGFDYWGQGTLVTVSS
VL: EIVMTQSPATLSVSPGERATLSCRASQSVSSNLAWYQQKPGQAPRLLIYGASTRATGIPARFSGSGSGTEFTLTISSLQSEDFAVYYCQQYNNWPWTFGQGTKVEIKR
notes: Fab; also called anti-BCMA-E6-G6; E6-G6
For B20, the Kd in assay [4] worked out at 5.78 nM; in assay [6] it was 2.26 nM; in assay [7] it was 0.33 nM. Besides, the “Maximum binding (RFI)” value in assay [5] amounted to 46500 RFI.

B21: anti-BCMA-PP02-D3 FAB (Fab, V domains shown)
VH: EVQLVESGGGLIQPGGSLRLSCAASGFIFSHYEMNWVRQAPGKGLEWVSAIGQGGNTVYADSVKGRFTISRDNSKNTLYLQMNSLRAEDTAVYYCARVPYSYSGYSGADIWGQGTLVTVSS
VL: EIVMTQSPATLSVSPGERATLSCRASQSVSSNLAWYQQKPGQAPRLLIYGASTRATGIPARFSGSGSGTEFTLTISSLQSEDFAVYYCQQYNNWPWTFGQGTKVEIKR
notes: Fab; also called anti-BCMA-D3; anti-BCMA-D3 Fab
In the case of B21, the Kd in assay [3] was found to be 40 nM; in assay [2] it was 15 nM.

B22: anti-BCMA-PP02-A3 FAB (Fab, V domains shown)
VH: EVQLLESGGGLVQPGGSLRLSCAASGFTFSQYAMSWVRQAPGKGLEWVSIISQDGGVTVYADSVKGRFTISRDNSKNTLYLQMNSLRAEDTAVYYCARSPYGGGSYIPHDSWGQGTLVTVSS
VL: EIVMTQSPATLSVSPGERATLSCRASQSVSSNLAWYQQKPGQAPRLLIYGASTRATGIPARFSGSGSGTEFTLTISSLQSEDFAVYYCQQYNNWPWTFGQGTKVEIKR
notes: Fab
As for B22, the Kd in assay [2] was found to be 318 nM.
